In PMC5553682 one finds % change of FRET (mKate:GFP ratio) in high [K]o data, which are given here for one substance.

The assay has as its target GFP-Cav3.1 pore mutant (human). The assay can be described thus: FRET or BRET; live tsA-201 cells also expressing Kir2.1, exposed to high [K]o (50 mM); % change of the mKate:GFP ratio against time 0; the decrease was prevented by TTA-P2, mibefradil + Ni2+ or BAPTA-AM. (Bioluminescence resonance energy transfer reports proximity on the nanometre scale.)

Regarding “mKate-CaM (from UniProt P0DP23 1-149) (natural protein)”, the % change of FRET (mKate:GFP ratio) in high [K]o worked out at 4.55%.
